In PMC4735526 (Nature Communications, 2016):
Substitutions are numbered along the chain they refer to.

T1: T-STAR STAR (UniProt O75525 1-183)
T1 sequence: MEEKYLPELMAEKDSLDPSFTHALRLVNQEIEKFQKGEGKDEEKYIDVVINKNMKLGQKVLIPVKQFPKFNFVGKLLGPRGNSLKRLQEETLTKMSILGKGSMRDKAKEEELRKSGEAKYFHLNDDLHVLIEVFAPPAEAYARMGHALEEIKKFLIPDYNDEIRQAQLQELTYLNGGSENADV

T2: T-STAR QUA1-KH (UniProt O75525 1-160)
T2 sequence: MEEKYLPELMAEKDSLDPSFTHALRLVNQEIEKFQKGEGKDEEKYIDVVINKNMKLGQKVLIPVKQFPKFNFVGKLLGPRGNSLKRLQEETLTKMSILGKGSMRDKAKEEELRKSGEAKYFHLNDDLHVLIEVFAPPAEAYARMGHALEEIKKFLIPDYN

T3: T-STAR QUA1-KH Y141E (UniProt O75525 1-160, Y141E)
T3 sequence: T2 sequence with Y141E

T4: T-STAR STAR Y141E (UniProt O75525 1-183, Y141E)
T4 sequence: T1 sequence with Y141E

T5: T-STAR KH (UniProt O75525 50-160)
T5 sequence: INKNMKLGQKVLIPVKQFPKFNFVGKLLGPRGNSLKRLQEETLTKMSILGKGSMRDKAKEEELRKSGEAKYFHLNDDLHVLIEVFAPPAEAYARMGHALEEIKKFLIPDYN

T6: T-STAR KH-QUA2 (UniProt O75525 50-183)
T6 sequence: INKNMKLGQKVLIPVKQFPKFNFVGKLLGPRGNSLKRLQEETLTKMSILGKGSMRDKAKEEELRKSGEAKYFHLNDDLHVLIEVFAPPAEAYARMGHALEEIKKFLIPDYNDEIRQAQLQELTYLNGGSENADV

B1: SRE-4 (ssRNA)
RNA: UUUGGGGGUUCAAUAAAAAUUUUCACUAUCCUAUUAACAGUUCCGCCGCUCC
B2: T-STAR KH-QUA2 domain (amino acids 50-183) (domain or fragment, human, UniProt O75525 50-183, looked up)
chain: T6 sequence
notes: T-STAR/SLM2, human, KH and QUA2 domains, residues 50-183; Crystallised with AAUAAU RNA; QUA2 not seen in the electron density; source: E. coli Rosetta BL21 DE3, purified (Ni-NTA, TEV cleavage, size-exclusion chromatography); not shown: His tag (inferred from the Ni-NTA purification)
B3: T-STAR KH domain (amino acids 50-160) (domain or fragment, human, UniProt O75525 50-160, looked up)
chain: T5 sequence
notes: T-STAR/SLM2, human, KH domain, residues 50-160; The free KH structure (5EL3) was phased from a SeMet-labelled KH domain; the complex with AAAUAA is 5ELS; source: E. coli Rosetta BL21 DE3, purified (Ni-NTA, TEV cleavage, size-exclusion chromatography); not shown: His tag (inferred from the Ni-NTA purification)
B4: T-STAR QUA1-KH domain (domain or fragment, human)
chain: T2 sequence
notes: T-STAR/SLM2, human, QUA1 and KH domains with the linker between them; by the limits of the STAR (1-183) and KH (50-160) constructs they may be 1-160 (surmised); source: E. coli Rosetta BL21 DE3, purified (Ni-NTA, TEV cleavage, size-exclusion chromatography); not shown: His tag (inferred from the Ni-NTA purification)
B5: Sam68 STAR domain (amino acids 97-283) (domain or fragment, human, UniProt Q07666 97-283, looked up)
chain: MEPENKYLPELMAEKDSLDPSFTHAMQLLTAEIEKIQKGDSKKDDEENYLDLFSHKNMKLKERVLIPVKQYPKFNFVGKILGPQGNTIKRLQEETGAKISVLGKGSMRDKAKEEELRKGGDPKYAHLNMDLHVFIEVFGPPCEAYALMAHAMEEVKKFLVPDMMDDICQEQFLELSYLNGVPEPSRG
notes: Sam68 (Src-associated protein in mitosis of 68 kDa), human, STAR domain (QUA1, KH, QUA2), residues 97-283; also called Src-associated protein in mitosis of 68 kDa; source: E. coli Rosetta BL21 DE3, purified (Ni-NTA, TEV cleavage, size-exclusion chromatography); not shown: His tag (inferred from the Ni-NTA purification)
B6: T-STAR STAR domain (amino acids 1-183) (domain or fragment, human, UniProt O75525 1-183, looked up)
chain: T1 sequence
notes: Crystallised with AUUAAA RNA; QUA2 region not seen in the electron density; also called SLM2; source: E. coli Rosetta BL21 DE3, purified (Ni-NTA, TEV cleavage, size-exclusion chromatography); not shown: His tag (inferred from the Ni-NTA purification)

Target: T1, T-STAR STAR
Assay: fluorescence polarization; 10 mM Tris pH 7, 100 mM NaCl, 0.1% beta-mercaptoethanol; 0.2 uM fluorescein-labelled RNA; protein 0-200 uM; temperature not stated

**Q.** How did the Kd turn out when UAAACCCCCCCCCCCCCCCUAAA (ssRNA) [UAAA-C15-UAAA] was run?
**A.** 6.7 µM

**Q.** For UCCGGAUUGGCCUAAAUAGAUGCGCGAUAAUAAUAGAGUA (ssRNA) [G7.1], which Kd is on record?
**A.** 5.4 µM

**Q.** CCCAAUUAACUAACUAACUAACUUUAAAA (ssRNA) [Nrxn2] was tested. Which Kd did it give?
**A.** 1.1 µM

**Q.** For UAAACCCCCCCCCCUAAA (ssRNA) [UAAA-C10-UAAA], which Kd is on record?
**A.** 7 µM

**Q.** How did the Kd turn out when UAAACCCCCUAAA (ssRNA) [UAAA-C5-UAAA] was run?
**A.** 5.9 µM

**Q.** With CUGGGUGACACACUAGCUAUAGCAUUAAAAGACCGAGCAAGU (ssRNA) [G8.5] as the molecule, how does the Kd read?
**A.** 11.7 µM

**Q.** For B1, which Kd is on record?
**A.** 8.5 µM

**Q.** Which Kd does the source give for UAAACCC (ssRNA) here?
**A.** 7 µM

Target: Sam68 QUA1-KH (UniProt Q07666 97-260)
Assay: as above

**Q.** Which Kd does the source give for UAAACCCCCCCCCCCCCCCUAAA (ssRNA) [UAAA-C15-UAAA] here?
**A.** 26.3 µM

**Q.** With UCCGGAUUGGCCUAAAUAGAUGCGCGAUAAUAAUAGAGUA (ssRNA) [G7.1] as the molecule, how does the Kd read?
**A.** 4.3 µM

**Q.** With CCCAAUUAACUAACUAACUAACUUUAAAA (ssRNA) [Nrxn2] as the molecule, how does the Kd read?
**A.** 2.2 µM

**Q.** Which Kd does the source give for AAAAA (ssRNA) here?
**A.** 13 µM

**Q.** How did the Kd turn out when AUAAU (ssRNA) was run?
**A.** 49 µM

**Q.** For AUAAA (ssRNA), which Kd is on record?
**A.** 55 µM

**Q.** Which Kd does the source give for UUAAA (ssRNA) here?
**A.** 50 µM

**Q.** CUAAA (ssRNA) was tested. Which Kd did it give?
**A.** 34 µM

**Q.** UAAACCCCCCCCCCUAAA (ssRNA) [UAAA-C10-UAAA] was tested. Which Kd did it give?
**A.** 37.3 µM

**Q.** Which Kd does the source give for UAAACCCCCUAAA (ssRNA) [UAAA-C5-UAAA] here?
**A.** 42.7 µM

**Q.** How did the Kd turn out when CUGGGUGACACACUAGCUAUAGCAUUAAAAGACCGAGCAAGU (ssRNA) [G8.5] was run?
**A.** 10.3 µM

**Q.** With B1 as the molecule, how does the Kd read?
**A.** 19.1 µM

**Q.** For UAAACCC (ssRNA), which Kd is on record?
**A.** 50 µM

Target: T2, T-STAR QUA1-KH
Assay: as above

**Q.** UAAACCCCCCCCCCCCCCCUAAA (ssRNA) [UAAA-C15-UAAA] was tested. Which Kd did it give?
**A.** 6.8 µM

**Q.** UCCGGAUUGGCCUAAAUAGAUGCGCGAUAAUAAUAGAGUA (ssRNA) [G7.1] was tested. Which Kd did it give?
**A.** 4.5 µM

**Q.** With CCCAAUUAACUAACUAACUAACUUUAAAA (ssRNA) [Nrxn2] as the molecule, how does the Kd read?
**A.** 1.7 µM

**Q.** AAAAA (ssRNA) was tested. Which Kd did it give?
**A.** 6 µM

**Q.** How did the Kd turn out when ACAAA (ssRNA) was run?
**A.** 55 µM

**Q.** Which Kd does the source give for AUAAU (ssRNA) here?
**A.** 45 µM

**Q.** Which Kd does the source give for AUAAA (ssRNA) here?
**A.** 37 µM

**Q.** For AUAAC (ssRNA), which Kd is on record?
**A.** 47 µM

**Q.** Which Kd does the source give for UUAAA (ssRNA) here?
**A.** 16 µM

**Q.** How did the Kd turn out when CUAAA (ssRNA) was run?
**A.** 18 µM

**Q.** Which Kd does the source give for UAAACCCCCCCCCCUAAA (ssRNA) [UAAA-C10-UAAA] here?
**A.** 8.6 µM

**Q.** How did the Kd turn out when UAAACCCCCUAAA (ssRNA) [UAAA-C5-UAAA] was run?
**A.** 5.5 µM

**Q.** How did the Kd turn out when CUGGGUGACACACUAGCUAUAGCAUUAAAAGACCGAGCAAGU (ssRNA) [G8.5] was run?
**A.** 8.1 µM

**Q.** With B1 as the molecule, how does the Kd read?
**A.** 9.4 µM

**Q.** Which Kd does the source give for UAAACCC (ssRNA) here?
**A.** 7.9 µM

Target: Sam68 QUA1-KH Y241E (UniProt Q07666 97-260, Y241E)
Assay: as above

**Q.** How did the Kd turn out when UAAACCCCCCCCCCCCCCCUAAA (ssRNA) [UAAA-C15-UAAA] was run?
**A.** 4 µM

**Q.** For UAAACCCCCCCCCCUAAA (ssRNA) [UAAA-C10-UAAA], which Kd is on record?
**A.** 3.9 µM

**Q.** How did the Kd turn out when UAAACCCCCUAAA (ssRNA) [UAAA-C5-UAAA] was run?
**A.** 4.6 µM

**Q.** How did the Kd turn out when UAAACCC (ssRNA) was run?
**A.** 27.1 µM

Target: T7, Sam68 STAR (UniProt Q07666 97-283)
Assay: as above

**Q.** UCCGGAUUGGCCUAAAUAGAUGCGCGAUAAUAAUAGAGUA (ssRNA) [G7.1] was tested. Which Kd did it give?
**A.** 8.2 µM

**Q.** With CCCAAUUAACUAACUAACUAACUUUAAAA (ssRNA) [Nrxn2] as the molecule, how does the Kd read?
**A.** 3.7 µM

**Q.** With CUGGGUGACACACUAGCUAUAGCAUUAAAAGACCGAGCAAGU (ssRNA) [G8.5] as the molecule, how does the Kd read?
**A.** 36.1 µM

**Q.** How did the Kd turn out when B1 was run?
**A.** 65.7 µM

Target: T3, T-STAR QUA1-KH Y141E
Assay: as above

**Q.** Which Kd does the source give for UAAACCCCCCCCCCCCCCCUAAA (ssRNA) [UAAA-C15-UAAA] here?
**A.** 4.7 µM

**Q.** UAAACCCCCCCCCCUAAA (ssRNA) [UAAA-C10-UAAA] was tested. Which Kd did it give?
**A.** 4.4 µM

**Q.** For UAAACCCCCUAAA (ssRNA) [UAAA-C5-UAAA], which Kd is on record?
**A.** 5.3 µM

**Q.** With UAAACCC (ssRNA) as the molecule, how does the Kd read?
**A.** 10.9 µM

Target: T4, T-STAR STAR Y141E
Assay: as above

**Q.** UAAACCCCCCCCCCCCCCCUAAA (ssRNA) [UAAA-C15-UAAA] was tested. Which Kd did it give?
**A.** 4.7 µM

**Q.** With UAAACCCCCCCCCCUAAA (ssRNA) [UAAA-C10-UAAA] as the molecule, how does the Kd read?
**A.** 4.9 µM

**Q.** UAAACCCCCUAAA (ssRNA) [UAAA-C5-UAAA] was tested. Which Kd did it give?
**A.** 5.1 µM

**Q.** UAAACCC (ssRNA) was tested. Which Kd did it give?
**A.** 6.8 µM

Target: the molecule itself
Assay: crystal structure; T-STAR constructs in complex with short RNAs (protein/RNA 1:2), sitting drop vapour diffusion at 4 °C; protein in 10 mM Tris pH 7.0, 50 mM NaCl

**Q.** Does B2 bind?
**A.** binds

**Q.** Does B3 bind?
**A.** binds

Target: Sam68 QUA1-KH domain (human)
Assay: SAXS; 25 °C, 1-20 mg/ml protein in the NMR buffers, in the absence and presence of AAAUAA RNA (10 mg/ml protein, protein/RNA 1:1); molecular weights from Porod volumes

**Q.** Which stoichiometry N does the source give for “Sam68 QUA1-KH domain (domain or fragment)” here?
**A.** 2

Target: the molecule itself
Assay: as above

**Q.** With B4 as the molecule, how does the “stoichiometry N” value read?
**A.** 2

**Q.** B5 was tested. Which “stoichiometry N” value did it give?
**A.** 2

**Q.** B6 was tested. Which “stoichiometry N” value did it give?
**A.** 2

Target: T1, T-STAR STAR
Assay: X-ray crystallography; FP: 10 mM Tris pH 7, 100 mM NaCl, 0.1% beta-mercaptoethanol, 0.2 uM fluorescein-RNA, protein 0-200 uM, temperature not stated; NMR 303 K: Sam68 in 10 mM Tris pH

**Q.** Does AUUAAA (ssRNA) bind?
**A.** binds

Target: T2, T-STAR QUA1-KH
Assay: as above

**Q.** Does UAAU (ssRNA) bind?
**A.** binds

Target: T5, T-STAR KH
Assay: as above

**Q.** Does AAAUAA (ssRNA) bind?
**A.** binds

Target: T6, T-STAR KH-QUA2
Assay: as above

**Q.** Does AAUAAU (ssRNA) bind?
**A.** binds

Target: T7, Sam68 STAR
Assay: NMR chemical shift perturbation; FP: 10 mM Tris pH 7, 100 mM NaCl, 0.1% beta-mercaptoethanol, 0.2 uM fluorescein-RNA, protein 0-200 uM, temperature not stated; NMR 303 K: Sam68 in 10 mM Tris pH

**Q.** Does AUUAAA (ssRNA) bind?
**A.** binds
